{"source": "patent CN108299557A", "about": "(HANGZHOU HANSI BIOMEDICAL CO LTD, dated 2018)", "binders": {"B1": {"name": "人源化抗体H8L2 (抗PD-1的IgG类抗体变体) (antibody)", "heavy": "EVQLVQSGGGLVQPGGSLKLSCAASGFTFSSYGMSWVRQAPGKGLDWVATISGGGRDTYYPDSVKGRFTISRDNSKNNLYLQMNSLRAEDTALYYCARQKGEAWFAYWGQGTLVTVSSASTKGPSVFPLAPCSRSTSESTAALGCLVKDYFPEPVTVSWNSGALTSGVHTFPAVLQSSGLYSLSSVVTVPSSSLGTKTYTCNVDHKPSNTKVDKRVESKYGPPCPPCPAPEFLGGPSVFLFPPKPKDTLMITRTPEVTCVVVDVSQEDPEVQFNWYVDGVEVHNAKTKPREEQFNSTYRVVSVLTPLHQDWLNGKEYKCKVSNKGLPSSIEKTISKAKGQPREPQVYTLPPSQEEMTKNQVSLTCLVKGFYPSDIAVEWESNGQPENNYKTTPPVLDSDGSFFLYSRLTVDKSRWQEGNVFSCSVMHEALHAHYTQKSLSLSLGK", "light": "not shown", "notes": "ACC CCC CTG; CAC GCC CAC) confirms; The constant region looks like IgG4; also called 18A10 H8L2; H8L2突变体"}}, "key": {"PD-1-hIgGFc抗原 [1]": {"target": "T1, PD-1-hIgGFc抗原 (UniProt Q15116 25-167, limits assumed)", "T1 construct": "not shown: human IgG Fc", "T1 sequence (Q15116 25-167 limits assumed)": "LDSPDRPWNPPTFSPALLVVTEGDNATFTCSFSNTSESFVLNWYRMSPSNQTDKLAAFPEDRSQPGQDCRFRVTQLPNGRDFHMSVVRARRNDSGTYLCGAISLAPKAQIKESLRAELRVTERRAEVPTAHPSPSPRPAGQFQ", "experiment": "competition ELISA, PD-1-hIgGFc coated, competitor PDL1-mIgG2aFc 0.6 ug/ml, HRP anti-mouse IgG"}, "PD-1-his抗原": {"target": "T2, PD-1-his抗原 (UniProt Q15116 25-167, limits assumed)", "T2 construct": "not shown: his tag", "T2 sequence (Q15116 25-167 limits assumed)": "as above", "experiment": "binding ELISA, PD-1-his coated, HRP anti-human IgG"}, "PD-1-hIgGFc抗原 [2]": {"target": "T1, PD-1-hIgGFc抗原", "experiment": "competition ELISA, PD-1-hIgGFc coated, competitor PDL2-his tag 1.0 ug/ml, HRP anti-his tag"}}}
{"binder": "B1", "values": [{"measurement": "EC50", "setting": "PD-1-hIgGFc抗原 [1]", "value": 0.474, "unit": "nM"}, {"measurement": "EC50", "setting": "PD-1-his抗原", "value": 0.04, "unit": "nM"}, {"measurement": "EC50", "setting": "PD-1-hIgGFc抗原 [2]", "value": 1.83, "unit": "nM"}]}
